{"source": "patent US20100267060A1", "about": "(BIOSITE, published 2010)", "biological_target": "T1, Human secretagogin (SEQ ID NO: 1, containing an amino terminal … FLIS tag) (human, UniProt O76038 1-276)", "T1 construct": "It was biotinylated for the screening ELISA and unlabeled in the sandwich screens; also called Secretagogin protein; human secretagogin-biotin", "T1 sequence": "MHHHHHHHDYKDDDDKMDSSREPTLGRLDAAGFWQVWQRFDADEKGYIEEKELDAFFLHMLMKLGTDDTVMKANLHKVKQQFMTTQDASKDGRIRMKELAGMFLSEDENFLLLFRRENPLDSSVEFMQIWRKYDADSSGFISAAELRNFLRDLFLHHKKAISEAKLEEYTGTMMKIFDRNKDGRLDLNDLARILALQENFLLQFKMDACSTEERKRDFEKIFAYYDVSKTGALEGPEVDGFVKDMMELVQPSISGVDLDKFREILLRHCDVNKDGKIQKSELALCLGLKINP", "test": "method not stated"}
{"binder": "ST108Z R1ZM 02871 (antibody, V domains shown, Mouse monoclonal antibody from phage-display library ST108ZR1, expressed in E. coli from a plasmid vector) VH: EVQLQQSGPELVKPGTSVKMSCKASGYSFTDYNMHWVKQSHGKSLEWIGYVDPNIGGTSYNPKFKGKATLTVNKSSSTAYMELRSLTSEDSAVYFCARYPNYSGRRYLFAMDYWGQGTSVTVSS VL: EIVLTQSPAIMSASPGEKVTLTCSASSSISSSYFYWYRQKPGSSPQLWIYGTSNLASGVPARFSGSGSGTSYSLTISSMEAEDAASYFCHQWSSYPLTFGAGTKLELK", "values": [{"measurement": "Ka", "value": "≥ 1e+10", "unit": "M⁻¹"}]}
{"binder": "ST102Z X1ZM 01611 (antibody, V domains shown, Mouse monoclonal antibody from phage-display library ST102ZX1, expressed in E. coli from a plasmid vector) VH: QVQLQQSRPELVRPGASVKISCKAPGYIFTSHWMQWVRQRPGQGLEWIGEIFPGSGSTFYNEKFKDKATLTVDTSSSTAYMQLSSLTSEDSAVYFCARTDYYSSAMDYWGQGTSVTVSS VL: ETTVTQSPSSLSMAIGEKVTIRCITHTDIDDDMNWYQQKPGEPPKLLISEGNTLRPGVPSRFSSSGFGTDFFFTIENMLSEDVADYYCLQSDTLPLTFGAGTKLELK", "values": [{"measurement": "Ka", "value": "≥ 1e+10", "unit": "M⁻¹"}]}
